Assays:
NOTCH1 = target: T1, NOTCH1 (human, UniProt P46531 19-2555); test: co-immunoprecipitation, THP-1 cells and human AML patient blasts (figure legend)
T1 construct: whole, on cells; Endogenous protein from cell lysates (antibody array, co-IP); also called NOTCH1 protein
Procedure: (§1) Cell lysate of 10×10⁶ THP-1 cells or 5×10⁶ human AML patient blasts (n=2) were subjected to CO-IP with Protein G Plus/Protein A agarose beads.
(§2) Cells (1-5×10⁶) were lysed in 400 μl of Pierce Co-Immunoprecipitation lysis buffer (Thermo Scientific) supplemented with protease and phosphatase inhibitors (Roche). Cell lysis was performed on ice for 20 min and the cell lysate was sonicated for 5 sec three times. After centrifugation with 14,000 g at 4° C. for 15 min, the cell lysate supernatant was transferred to new tubes immediately and added to 50% Protein G Plus/Protein A agarose beads (EMD Millipore, Tremecula, CA, USA) with a ratio of 100 μl for a lml sample solution. After incubation with rotation at 4° C. for 1 h, and the mixture was centrifuged at 14,000 g for 10 min at 4° C. The supernatant was transferred to new tubes, added with 2-20 μg antibody and incubated on rotating shaker at 4° C. overnight. After centrifugation, the supernatant was incubated with 50 μl proteinA/G agarose at 4° C. with rotation for 2 h. The agarose beads were washed five times with ice-cold Pierce Co-Immunoprecipitation lysis buffer. Then 20 μl 2×loading buffer was added, boiled for 5 min and subjected to Western blotting. The corresponding normal antibodies were applied as negative control for CO-IP.

NOTCH2 = target: T2, NOTCH2 (human, UniProt Q04721 26-2471); test: as above
T2 construct: whole, on cells; Endogenous protein from cell lysates (co-IP); also called NOTCH2 protein
T2 sequence (Q04721 26-2471): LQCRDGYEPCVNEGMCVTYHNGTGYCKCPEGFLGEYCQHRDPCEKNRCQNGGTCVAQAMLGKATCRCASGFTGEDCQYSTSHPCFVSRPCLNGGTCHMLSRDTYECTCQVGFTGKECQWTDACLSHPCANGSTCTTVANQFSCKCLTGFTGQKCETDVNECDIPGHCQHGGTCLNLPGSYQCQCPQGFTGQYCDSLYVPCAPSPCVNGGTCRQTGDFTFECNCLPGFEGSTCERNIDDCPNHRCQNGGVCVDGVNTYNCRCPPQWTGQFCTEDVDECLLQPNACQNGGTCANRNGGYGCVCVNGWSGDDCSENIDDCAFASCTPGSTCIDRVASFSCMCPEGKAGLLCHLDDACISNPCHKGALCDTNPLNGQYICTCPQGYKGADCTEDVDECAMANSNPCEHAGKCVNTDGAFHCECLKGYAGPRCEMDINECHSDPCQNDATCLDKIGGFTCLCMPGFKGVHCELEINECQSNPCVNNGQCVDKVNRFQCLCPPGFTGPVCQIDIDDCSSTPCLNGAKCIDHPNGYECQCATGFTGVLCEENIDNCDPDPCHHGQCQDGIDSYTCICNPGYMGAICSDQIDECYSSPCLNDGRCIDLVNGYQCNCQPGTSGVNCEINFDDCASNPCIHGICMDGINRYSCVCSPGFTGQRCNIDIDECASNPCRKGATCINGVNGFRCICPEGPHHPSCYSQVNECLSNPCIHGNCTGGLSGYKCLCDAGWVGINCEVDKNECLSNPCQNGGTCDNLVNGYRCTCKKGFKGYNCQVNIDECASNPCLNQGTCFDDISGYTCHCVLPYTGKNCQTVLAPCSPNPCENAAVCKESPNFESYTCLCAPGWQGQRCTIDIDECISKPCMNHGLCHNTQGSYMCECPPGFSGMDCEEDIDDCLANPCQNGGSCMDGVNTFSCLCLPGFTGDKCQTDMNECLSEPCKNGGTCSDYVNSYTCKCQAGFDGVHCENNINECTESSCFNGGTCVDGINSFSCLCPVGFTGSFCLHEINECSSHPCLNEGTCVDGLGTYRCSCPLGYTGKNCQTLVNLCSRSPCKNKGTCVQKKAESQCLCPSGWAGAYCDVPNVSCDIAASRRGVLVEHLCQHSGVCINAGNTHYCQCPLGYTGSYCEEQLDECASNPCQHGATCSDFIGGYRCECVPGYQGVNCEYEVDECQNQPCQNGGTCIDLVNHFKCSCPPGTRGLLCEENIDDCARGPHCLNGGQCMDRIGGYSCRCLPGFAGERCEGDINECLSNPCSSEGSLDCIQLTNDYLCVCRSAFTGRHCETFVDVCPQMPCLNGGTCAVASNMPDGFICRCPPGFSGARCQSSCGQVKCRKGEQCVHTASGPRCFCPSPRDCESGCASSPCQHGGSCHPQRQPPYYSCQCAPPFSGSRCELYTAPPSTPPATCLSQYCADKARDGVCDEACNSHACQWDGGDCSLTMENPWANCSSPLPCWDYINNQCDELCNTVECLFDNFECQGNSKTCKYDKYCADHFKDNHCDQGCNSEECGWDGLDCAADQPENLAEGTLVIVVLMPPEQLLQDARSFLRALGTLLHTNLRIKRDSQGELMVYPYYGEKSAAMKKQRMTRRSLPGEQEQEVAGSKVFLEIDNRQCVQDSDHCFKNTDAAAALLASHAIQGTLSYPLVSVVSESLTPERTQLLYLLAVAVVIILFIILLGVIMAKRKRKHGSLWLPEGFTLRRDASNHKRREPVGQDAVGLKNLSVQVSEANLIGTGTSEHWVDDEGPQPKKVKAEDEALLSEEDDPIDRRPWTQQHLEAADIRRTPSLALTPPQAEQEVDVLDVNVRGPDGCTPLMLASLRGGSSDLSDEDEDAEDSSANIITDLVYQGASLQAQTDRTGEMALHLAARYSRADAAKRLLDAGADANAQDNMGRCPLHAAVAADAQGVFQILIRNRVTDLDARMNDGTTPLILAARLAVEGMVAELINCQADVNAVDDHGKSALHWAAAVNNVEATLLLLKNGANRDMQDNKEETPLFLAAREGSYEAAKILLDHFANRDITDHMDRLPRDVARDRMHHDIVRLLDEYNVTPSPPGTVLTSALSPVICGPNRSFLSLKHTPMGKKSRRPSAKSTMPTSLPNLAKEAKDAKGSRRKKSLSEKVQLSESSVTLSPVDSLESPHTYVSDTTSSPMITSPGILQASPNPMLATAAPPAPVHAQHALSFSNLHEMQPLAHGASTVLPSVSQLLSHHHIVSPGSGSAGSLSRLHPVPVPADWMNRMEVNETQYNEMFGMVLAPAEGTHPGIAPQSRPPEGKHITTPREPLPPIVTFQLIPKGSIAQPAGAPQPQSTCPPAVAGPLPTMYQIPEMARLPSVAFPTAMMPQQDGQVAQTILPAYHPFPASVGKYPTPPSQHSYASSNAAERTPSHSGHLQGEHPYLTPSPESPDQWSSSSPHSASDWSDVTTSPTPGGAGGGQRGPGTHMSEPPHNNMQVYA
Procedure: as §1, §2

- binding result (NOTCH1): binds
- binding result (NOTCH2): binds
B1: EGFL7 protein (endogenous, in lysates of human AML cells: Kasumi-1, THP-1, primary AML patient blasts) (ligand)
chain: TEHAYRPGRRVCAVRAHGDPVSESFVQRVYQPFLTTCDGHRACSTYRTIYRTAYRRSPGLAPARPRYACCPGWKRTSGLPGACGAAICQPPCRNGGSCVQPGRCRCPAGWRGDTCQSDVDECSARRGGCPQRCVNTAGSYWCQCWEGHSLSADGTLCVPKGGPPRVAPNPTGVDSAMKEEVQRLQSRVDLLEEKLQLVLAPLHSLASQALEHGLPDPGSLLVHSFQQLGRIDSLSEQISFLEEQLGSCSCKKDS
notes: Endogenous protein immunoprecipitated from cell lysates; also called Epidermal growth factor-like domain 7
